Test [1] has as its target T1, FcγRIIIa (human, UniProt P08637 17-208).
T1 construct: extracellular domain; also called FcgRIIIa; CD16A; not shown: His tag attached to the C terminus
The test can be described thus: ratio of SPR KDs: KD of GpH7-A5/GpH7-B3/GpL16-k0 divided by KD of this antibody. The protocol:
The prepared antibodies were compared for the FcγRIIIa-binding activity using, as an indicator, KD for FcγRIIIa that was determined according to the method described in Reference Example 2.
(§1) Analysis of interaction between objective antibody and the FcγR was carried out using Biacore T100 (GE Healthcare). HBS-EP+ (GE Healthcare) was used as the running buffer, and the measurement temperature was set to 25° C. Chips produced by immobilizing the antigen peptide by the amine coupling method to a Series S Sencor Chip CM5 (GE Healthcare), or alternatively, chips produced by allowing preliminarily biotinylated antigen peptides to interact with and immobilize onto a Series S Sensor Chip SA (certified) (GE Healthcare) were used. Antibodies of interest were captured onto an antigen peptide-immobilized chip, and allowed to interact to each FcγR diluted with running buffer. To regenerate and repeatedly use the chip, the antibodies captured on the chip were washed off by reacting 10 mM glycine-HCl, pH 1.5.
(§2) Specifically, to calculate association rate constant ka (L/mol/s) and dissociation rate constant kd (1/s), sensorgrams obtained by measurement were processed for global fitting by Biacore Evaluation Software using 1:1 Langmuir binding model and dissociation constant KD (mol/1) was calculated from the resulting values.

The target in test [2] is T1, FcγRIIIa. The test can be described thus: ratio of SPR KDs: KD of GpH7-G1d/GpL16-k0 divided by KD of this antibody. Summed up:
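Biacore SPR at 25 °C in HBS-EP+; antibodies captured on antigen peptide-immobilized CM5 or SA chips, FcγRIIIa flowed as analyte, regeneration with 10 mM glycine-HCl pH 1.5. KD from ka and kd by global 1:1 Langmuir fitting; values are the reference antibody's KD divided by this antibody's KD.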

Test [3] concerns the target T1, FcγRIIIa. The test can be described thus: ratio of SPR KDs: KD of GpH7-A5/GpH7-B78/GpL16-k0 divided by KD of this antibody. As for the experimental part:
To assess this hypothesis, GpH7-A53 (SEQ ID NO: 42) resulting from the introduction of S239D into GpH7-A5 was constructed, and, this is combined with GpH7-B78 introduced with S239D, A330L, and I332E, and the expression and preparation were performed according to the method described in Reference Example 1. The effect of the combination of S239D and S239D, A330L, and I332E was assessed by comparing the FcγRIIIa binding between the heterodimerized and homodimerized antibodies with S239D, A330L, and I332E according to the method described in Reference Example 2 (Table 14).
as §1, §2

The target in test [4] is T1, FcγRIIIa. The test can be described thus: ratio of SPR KDs: KD of GpH7-TA22/GpH7-B78/GpL16-k0 divided by KD of this antibody.
Excerpt: Then, GpH7-TA54 (SEQ ID NO: 46) resulting from the introduction of Y296W into GpH7-TA22 was constructed, and expressed and prepared in combination with GpH7-B78 according to the method described in Reference Example 1. Furthermore, GpH7-TA58 (SEQ ID NO: 45) resulting from the introduction of Y296W into GpH7-B78 was constructed, and expressed and prepared in combination with GpH7-TA22 according to the method described in Reference Example 1. To assess the effect of combination with Y296W, the prepared antibodies were compared for the FcγRIIIa-binding activity according to the method described in Reference Example 2 (Table 17).
as §1

The target in test [5] is T1, FcγRIIIa. Description: ratio of SPR KDs: KD of GpH7-TA7/GpH7-B78/GpL16-k0 divided by KD of this antibody.
Excerpt: First, it was considered which H chain should be introduced with Y296W. GpH7-TA52 (SEQ ID NO: 44) resulting from the introduction of the mutation Y296W into GpH7-TA7 was constructed, and expressed and prepared in combination with GpH7-B78 according to the method described in Reference Example 1. Furthermore, GpH7-TA58 (SEQ ID NO: 45) resulting from the introduction of Y296W into GpH7-B78 was constructed, and expressed and prepared in combination with GpH7-TA22 according to the method described in Reference Example 1. To assess the effects of combinations with Y296W, the prepared antibodies were compared for the FcγRIIIa-binding activity according to the method described in Reference Example 2 (Table 16).
as §1

Test [6] has as its target T2, FcγRIIIa V extracellular domain with C-terminal His tag (human, UniProt P08637 17-208).
T2 construct: extracellular domain; Soluble receptor, V158 allotype; also called FcgRIIIa V; FcgRIIIaV; not shown: His tag at the C terminus
The test can be described thus: SPR (Biacore), antibody captured on chip, soluble FcγR as analyte, 1:1 Langmuir fit. As for the experimental part: (§3) Specifically, H240-Hl134 (SEQ ID NO: 88) resulting from introduction of L234Y/L235Y/G236W/H268D/S298A into H240-Hl033 and H240-Kn132 (SEQ ID NO: 89) resulting from introduction of K326D/A330M/K334E into H240-Kn033 were constructed according to the method described in Reference Example 1.
(§4) Analysis of interaction between objective antibody and the FcγR was carried out using Biacore T100 (GE Healthcare), Biacore T200, Biacore A100, and Biacore 4000. HBS-EP+ (GE Healthcare) was used as the running buffer, and the measurement temperature was set to 25° C. Chips produced by immobilizing the antigen peptide by the amine coupling method to a Series S sensor Chip CM5 (GE Healthcare), chips produced by allowing preliminarily biotinylated antigen peptides to interact with and immobilize onto a Series S Sensor Chip SA (certified) (GE Healthcare), chips produced by immobilizing Protein L (ACTIGEN, BioVision) to Series S Sencor Chip CM5 (GE Healthcare), or chips produced by immobilizing Protein A/G (Thermo Scientific) to Series S Sencor Chip CM5 (GE Healthcare) were used. Antibodies of interest were captured onto these chips, and allowed to interact to each FcγR diluted with running buffer. To regenerate and repeatedly use the chip, the antibodies captured onto the chip were washed off by reacting 10 mM glycine-HCl, pH 1.5.
Background: Surface plasmon resonance follows binding to a sensor surface in real time, without labels.

For test [7], the target named is T3, FcγRIIIa F extracellular domain with C-terminal His tag (human, UniProt P08637 17-208).
T3 construct: extracellular domain; Soluble receptor, F158 allotype; also called FcgRIIIa F; FcgRIIIaF; not shown: His tag at the C terminus
T3 sequence (P08637 17-208): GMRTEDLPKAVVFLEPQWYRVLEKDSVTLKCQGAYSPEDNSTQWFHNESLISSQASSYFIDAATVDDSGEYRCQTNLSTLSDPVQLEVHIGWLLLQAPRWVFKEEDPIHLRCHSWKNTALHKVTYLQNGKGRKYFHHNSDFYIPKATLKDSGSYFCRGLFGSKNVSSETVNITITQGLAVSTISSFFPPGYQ
The test is described as above. The protocol:
as §3, §4

These results are taken from US20150344570A1 (published 2015).

Positions count from the first letter of the chain named. In names and notes the source's numbering stands.

T1 sequence (P08637 17-208): as above
T2 sequence (P08637 17-208 F176V): as the sequence (P08637 17-208) above, with F160V counted along it

B1: GpH7-A57/GpH7-B78/GpL16-k0 (antibody, human IgG1, kappa)
heavy 1: QVQLVQSGAEVKKPGASVTVSCKASGYTFTDYEMHWIRQPPGEGLEWIGAIDPKTGDTAYSESFQDRVTLTADKSTSTAYMELSSLTSEDTAVYYCTRFYSYTYWGQGTLVTVSSASTKGPSVFPLAPSSKSTSGGTAALGCLVKDYFPEPVTVSWNSGALTSGVHTFPAVLQSSGLYSLSSVVTVPSSSLGTQTYICNVNHKPSNTKVDKKVEPKSCDKTHTCPPCPAPELLGGPDVFLFPPKPKDTLMISRTPEVTCVVVDVSHEDPEVKFNWYVDGVEVHNAKTKPREEQYNSTYRVVSVLTVLHQDWLNGKEYKCKVSNKALPLPEEKTISKAKGQPREPQVYTLPPSRKELTKNQVSLTCLVKGFYPSDIAVEWESNGQPENNYKTTPPVLDSDGSFFLYSKLTVDKSRWQQGNVFSCSVMHEALHNRYTQKSLSLSP
heavy 2: B1 heavy 1 with K354D, R433H, K437E
light: DIVMTQSPLSLPVTPGEPASISCQASESLVHSNRNTYLHWYLQKPGQSPQLLIYKVSNRFSGVPDRFSGSGSGTDFTLKISRVEAEDVGVYYCSQNTHVPPTFGQGTKVEIERTVAAPSVFIFPPSDEQLKSGTASVVCLLNNFYPREAKVQWKVDNALQSGNSQESVTEQDSKDSTYSLSSTLTLSKADYEKHKVYACEVTHQGLSSPVTKSFNRGEC
notes: Anti-glypican-3 IgG1; The two chains differ only in D356K/H435R and K439E
Turning to B1, the “KD ratio 2” value in test [1] turned out to be 263 fold. Also, in test [2], the “KD ratio 1” value was 199 fold. In addition, the KD ratio in test [3] worked out at 8.7 fold.

B2: GpH7-TA22/GpH7-TA58/GpL16-k0 (antibody, human IgG1, kappa)
heavy 1: B1 heavy 1 with L232Y, G234W, S296A, L328A, E330I
heavy 2: B1 heavy 1 with Y294W, K354D, R433H, K437E
light: B1 light
notes: Anti-glypican-3 IgG1 heterodimer; L234Y/G236W/S239D/S298A in H1, S239D/A330L/I332E/Y296W in H2
On to B2, for which, in test [4], the KD ratio was 1 fold.

B3: GpH7-TA52/GpH7-B78/GpL16-k0 (antibody, human IgG1, kappa)
heavy 1: B1 heavy 1 with L232Y, G234W, D237S, Y294W, S296A, L328A, E330I
heavy 2: B1 heavy 1 with K354D, R433H, K437E
light: B1 light
notes: Anti-glypican-3 IgG1 heterodimer; L234Y/G236W/S298A/Y296W in H1, S239D/A330L/I332E in H2
As for B3, the KD ratio in test [5] was 1.8 fold.

B4: GpH7-TA7/GpH7-TA58/GpL16-k0 (antibody, human IgG1, kappa)
heavy 1: B1 heavy 1 with L232Y, G234W, D237S, S296A, L328A, E330I
heavy 2: B1 heavy 1 with Y294W, K354D, R433H, K437E
light: B1 light
notes: Anti-glypican-3 IgG1 heterodimer; L234Y/G236W/S298A in H1, S239D/A330L/I332E/Y296W in H2
In the case of B4, the KD ratio in test [5] turned out to be 1.2 fold.

B5: GpH7-TA54/GpH7-B78/GpL16-k0 (antibody, human IgG1, kappa)
heavy 1: B1 heavy 1 with L232Y, G234W, Y294W, S296A, L328A, E330I
heavy 2: B1 heavy 1 with K354D, R433H, K437E
light: B1 light
notes: Anti-glypican-3 IgG1 heterodimer; L234Y/G236W/S239D/S298A/Y296W in H1, S239D/A330L/I332E in H2
On to B5, for which, in test [4], the KD ratio stood at 1.3 fold.

B6: H240-Kn061/H240-Hl134/L73-k0 (antibody, human IgG1, kappa)
heavy 1: QDQLVQSGAEVKKPGASVKVSCKASGFNIKDTYIQWVRQAPGQGLEWMGRIDPLRKQTKYREKFEGRVTITADTSTNTAYMELSSLRSEDTAVYYCVRSGREFDYWGQGTLVTVSSASTKGPSVFPLAPSSKSTSGGTAALGCLVKDYFPEPVTVSWNSGALTSGVHTFPAVLQSSGLYSLSSVVTVPSSSLGTQTYICNVNHKPSNTKVDKKVEPKSCDKTHTCPPCPAPEYYWGPSVFLFPPKPKDTLMISRTPEVTCVVVDVSDEDPEVKFNWYVDGVEVHNAKTKPREEQYNATYRVVSVLTVLHQDWLNGKEYKCKVSNKALPAPIEKTISKAKGQPREPQVCTLPPSRDELTKNQVSLWCLVKGFYPSDIAVEWESNGQPENNYKTTPPVLDSDGSFFLYSKLTVDKSRWQQGNVFSCSVMHEALHNHYTQKSLSLSP
heavy 2: B6 heavy 1 with C348Y, D355C, W365S, L367A, Y406V
light: DIQMTQSPSSLSASVGDRVTITCRASQDIHKYIAWYQQKPGQAPRLLIQYTSTLQPGVPSRFSGSGSGTDYTFTISSLQPEDIATYYCLQYEQLRTFGGGTKVEIKRTVAAPSVFIFPPSDEQLKSGTASVVCLLNNFYPREAKVQWKVDNALQSGNSQESVTEQDSKDSTYSLSSTLTLSKADYEKHKVYACEVTHQGLSSPVTKSFNRGEC
notes: Anti-epiregulin IgG1, knobs-into-holes; called homodimerized as both H chains carry L234Y/L235Y/G236W/H268D/S298A
For B6, the Kd came out at 86 nM in test [6] and 660 nM in test [7].

B7: H240-Kn132/H240-Hl071/L73-k0 (antibody, human IgG1, kappa)
heavy 1: B6 heavy 1 with Y233L, Y234L, W235G, D267H, A297S, K325D, A329M, K333E
heavy 2: QDQLVQSGAEVKKPGASVKVSCKASGFNIKDTYIQWVRQAPGQGLEWMGRIDPLRKQTKYREKFEGRVTITADTSTNTAYMELSSLRSEDTAVYYCVRSGREFDYWGQGTLVTVSSASTKGPSVFPLAPSSKSTSGGTAALGCLVKDYFPEPVTVSWNSGALTSGVHTFPAVLQSSGLYSLSSVVTVPSSSLGTQTYICNVNHKPSNTKVDKKVEPKSCDKTHTCPPCPAPELLGGPSVFLFPPKPKDTLMISRTPEVTCVVVDVSHEDPEVKFNWYVDGVEVHNAKTKPREEQYNSTYRVVSVLTVLHQDWLNGKEYKCKVSNDALPMPIEETISKAKGQPREPQVYTLPPSRCELTKNQVSLSCAVKGFYPSDIAVEWESNGQPENNYKTTPPVLDSDGSFFLVSKLTVDKSRWQQGNVFSCSVMHEALHNHYTQKSLSLSP
light: B6 light
notes: Anti-epiregulin IgG1, knobs-into-holes; called homodimerized as both H chains carry K326D/A330M/K334E
B7: the Kd in test [6] came to 16 nM; in test [7], 77 nM.

One may read the Kd as the equilibrium constant for the complex coming apart. Higher therefore signals weaker binding.
